“And” between values parts separate entries of the source, which are not always exact repeats. Equal values may be shown once.
What was measured:
[1] = target: human placental alkaline phosphatase (PLAP, Sigma) (human) (UniProt P05187); test: ELISA on coated hPLAP; row labelled '0' (apparently no sample, background)
[2] = target: human placental alkaline phosphatase (PLAP, Sigma) (human) (UniProt P05187); test: ELISA on coated hPLAP; mAb 64 ng/ml in PBS, undiluted
[3] = target: human placental alkaline phosphatase (PLAP, Sigma) (human) (UniProt P05187); test: ELISA on coated hPLAP; mAb 64 ng/ml in PBS, diluted 1:2
[4] = target: human placental alkaline phosphatase (PLAP, Sigma) (human) (UniProt P05187); test: ELISA on coated hPLAP; mAb 64 ng/ml in PBS, diluted 1:4
[5] = target: human placental alkaline phosphatase (PLAP, Sigma) (human) (UniProt P05187); test: ELISA on coated hPLAP; mAb 64 ng/ml in PBS, diluted 1:8
[6] = target: human placental alkaline phosphatase (PLAP, Sigma) (human) (UniProt P05187); test: ELISA on coated hPLAP; mAb 64 ng/ml in PBS, diluted 1:16
[7] = target: human placental alkaline phosphatase (PLAP, Sigma) (human) (UniProt P05187); test: ELISA on coated hPLAP; mAb 64 ng/ml in PBS, diluted 1:32
[8] = target: human placental alkaline phosphatase (PLAP, Sigma) (human) (UniProt P05187); test: ELISA on coated hPLAP; mAb 64 ng/ml in PBS, diluted 1:64
[9] = target: human placental alkaline phosphatase (PLAP, Sigma) (human) (UniProt P05187); test: ELISA on coated hPLAP; mAb 64 ng/ml spiked in negative serum, undiluted
[10] = target: human placental alkaline phosphatase (PLAP, Sigma) (human) (UniProt P05187); test: ELISA on coated hPLAP; mAb 64 ng/ml spiked in negative serum, diluted 1:2
[11] = target: human placental alkaline phosphatase (PLAP, Sigma) (human) (UniProt P05187); test: ELISA on coated hPLAP; mAb 64 ng/ml spiked in negative serum, diluted 1:4
[12] = target: human placental alkaline phosphatase (PLAP, Sigma) (human) (UniProt P05187); test: ELISA on coated hPLAP; mAb 64 ng/ml spiked in negative serum, diluted 1:8
[13] = target: human placental alkaline phosphatase (PLAP, Sigma) (human) (UniProt P05187); test: ELISA on coated hPLAP; mAb 64 ng/ml spiked in negative serum, diluted 1:16
[14] = target: human placental alkaline phosphatase (PLAP, Sigma) (human) (UniProt P05187); test: ELISA on coated hPLAP; mAb 64 ng/ml spiked in negative serum, diluted 1:32
[15] = target: human placental alkaline phosphatase (PLAP, Sigma) (human) (UniProt P05187); test: ELISA on coated hPLAP; mAb 64 ng/ml spiked in negative serum, diluted 1:64

Sequence of UniProt P05187 (P05187 23-506 limits assumed): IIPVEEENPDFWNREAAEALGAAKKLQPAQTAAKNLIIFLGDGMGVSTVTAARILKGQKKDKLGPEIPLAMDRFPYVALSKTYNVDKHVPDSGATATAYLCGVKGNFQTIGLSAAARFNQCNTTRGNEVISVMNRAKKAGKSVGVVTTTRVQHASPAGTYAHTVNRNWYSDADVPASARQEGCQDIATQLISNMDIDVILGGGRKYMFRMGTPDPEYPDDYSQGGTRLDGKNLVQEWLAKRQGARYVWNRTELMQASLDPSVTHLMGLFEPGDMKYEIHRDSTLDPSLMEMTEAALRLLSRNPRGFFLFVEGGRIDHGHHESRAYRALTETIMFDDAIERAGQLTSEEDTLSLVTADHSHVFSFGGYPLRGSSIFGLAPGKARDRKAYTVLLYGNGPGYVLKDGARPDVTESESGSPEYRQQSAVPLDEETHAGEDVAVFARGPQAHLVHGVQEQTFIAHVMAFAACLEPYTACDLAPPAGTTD

absorbance at 450 nm (absorbance at 450 nm) [1]	absorbance at 450 nm (absorbance at 450 nm) [2]	absorbance at 450 nm (absorbance at 450 nm) [3]	absorbance at 450 nm (absorbance at 450 nm) [4]	absorbance at 450 nm (absorbance at 450 nm) [5]	absorbance at 450 nm (absorbance at 450 nm) [6]	absorbance at 450 nm (absorbance at 450 nm) [7]	absorbance at 450 nm (absorbance at 450 nm) [8]	absorbance at 450 nm (absorbance at 450 nm) [9]	absorbance at 450 nm (absorbance at 450 nm) [10]	absorbance at 450 nm (absorbance at 450 nm) [11]	absorbance at 450 nm (absorbance at 450 nm) [12]	absorbance at 450 nm (absorbance at 450 nm) [13]	absorbance at 450 nm (absorbance at 450 nm) [14]	absorbance at 450 nm (absorbance at 450 nm) [15]	Substance
0.005															negative control serum (serum of mice injected with saline)
0.007 and 0.009	0.486	0.487	0.424	0.282	0.169	0.091	0.047	0.546	0.439	0.341	0.209	0.123	0.071	0.042	mouse monoclonal antibody to PLAP (clone 8B6, Sigma Immunochemicals)
